Measurements from patent publication US20160280784A1, “Antibodies Directed to GPNMB and Uses Thereof” (Celldex Therapeutics, Inc., priority 2009, published 2016).

What was measured:
[1] = test system: patients with locally advanced or metastatic breast cancer; test: Phase I/II study of CDX-011, preliminary 18 patients: tumor response; type: in vivo, human
Procedure: (§1) There was no limit to the number of prior regimens.
(§2) For Phase I dose escalation studies, the starting dose was 1.34 mg/kg IV every three weeks (q3w). Sequential dose cohorts (n=3) were enrolled based on tolerability. The cap was set at 1.88 mg/kg IV q3w.

[2] = test system: patients with locally advanced or metastatic breast cancer; test: Phase II Simon Two-Stage study / Phase II dose: anti-tumor activity (RECIST); type: in vivo, human; settings: for Median PFS: Phase II Dose 1.88 mg/kg
Procedure: (§3) For the Phase II Simon Two-Stage study, the primary endpoint was set at progression-free rate at 12 weeks. The following statistical assumptions were used p0=10%; p1=30%; α=β=0.10; first stage included sixteen patients; and if two or more patients were progression-free at 12 weeks, the total enrollment would increase to 25.
Additional measures of anti-tumor activity were evaluated for the patients in this further study.

[3] = test system: patients with locally advanced or metastatic breast cancer; test: Phase II study (n = 42): tolerability of CR011-vcMMAE (CDX-011); type: in vivo, human
Text: as §3
In particular, the treated patients (n=42) received a mean of 3.5 (range 1-8) cycles of treatment during this study. Four patients discontinued treatment due to adverse events (neuropathy, rash, dermatologic bullae and acute renal failure). Dose-escalation dose-limiting toxicities (DLTs) were limited to two cases of neuropathy (at the 1.34 mg/kg dose). After revision of the protocol to exclude pre-existing neuropathy ≧Grade 2, no further DLT occurred.

melanoma = melanoma patients; cited from earlier work
[4] = test system: patients with locally advanced or metastatic breast cancer; test: Phase I/II study of CDX-011, preliminary 18 patients: toxicity and dose escalation; type: in vivo, human
Procedure: as §1, §2
The toxicity results are shown below in Table 34. All treatment-emergent adverse events are shown in the table, regardless of attribution.

[5] = test system: GPNMB-expressing breast cancer cells; test: growth / killing of GPNMB-expressing breast cancer cells in vitro; type: cell-based
[6] = one patient with triple-negative disease, strongly positive stromal GPNMB expression
[7] = All Patients (n = 42), potentially related to CDX-011
[8] = 18 patients, regardless of attribution

glembatumumab vedotin [CDX-011]
tumor shrinkage ([1]; initial results from a phase I/II trial, metastatic breast cancer): tumor shrinkage was observed
confirmed partial response ([1]; of the 18 patients): one
patients with at least a partial response ([1]; of the 18 patients): three
tumor shrinkage observed ([1]; of the 18 patients (50%)): 9 patients
maximum tumor reduction ([1]; one patient, ER+/PR+/HER2+, partial response after two cycles, confirmed 6 weeks later, treatment for over 5 months): 42%
reduction in target lesions (partial response, CT) ([1]; one patient, ER+/PR+/HER2−, GPNMB positive biopsy, after two cycles): 51%
clinical outcome ([1]; one patient, triple negative, skull metastases, following two cycles, resolution of mental nerve paresis and discontinuation of analgesics): marked clinical improvement
reduction in target lesions (partial response, CT) ([1]; one patient, triple negative, after four cycles): 34%
Median PFS ([2]; all patients): 9.1 weeks
Median PFS ([2]; Expressing GPNMB): 18.3 weeks
Median PFS ([2]; Triple-negative disease): 17.9 weeks
outcomes by expression of GPNMB ([2]; heavily pretreated advanced breast cancer patients): associated with improved outcomes
duration partial response was maintained [2, 6]: ≥ 23 weeks
tumor shrinkage (partial response) [2, 6]: 53%
patients without progression at 12 weeks (primary efficacy endpoint) ([2]; out of 26 patients): at least 9 patients
tolerability ([3]; 1.88 mg/kg IV q3w, patients with advanced breast cancer): well-tolerated
Alopecia, Total [3, 7]: 14 (33%) n (%)
Anemia, Total [3, 7]: 10 (24%) n (%)
Asthenia, Grade 3 [3, 7]: 2 (5%) n (%)
Asthenia, Total [3, 7]: 3 (7%) n (%)
Fatigue, Grade 3 [3, 7]: 2 (5%) n (%)
Fatigue, Total [3, 7]: 20 (48%) n (%)
Nausea, Grade 3 [3, 7]: 2 (5%) n (%)
Nausea, Total [3, 7]: 19 (45%) n (%)
Neuropathy, Grade 3 [3, 7]: 1 (2%) n (%)
Neuropathy, Total [3, 7]: 10 (24%) n (%)
Neutropenia, Grade 3 [3, 7]: 8 (19%) n (%)
Neutropenia, Total [3, 7]: 12 (29%) n (%)
Rash, Grade 3 [3, 7]: 2 (5%) n (%)
Rash, Total [3, 7]: 19 (45%) n (%)
Vomiting, Grade 3 [3, 7]: 1 (2%) n (%)
Vomiting, Total [3, 7]: 12 (29%) n (%)
serious adverse events potentially related ([3]; all single cases at the Phase II dose): intractable vomiting/nausea, dermatologic bullae and acute renal failure
dose-escalation dose-limiting toxicities (DLTs) ([3]; at the 1.34 mg/kg dose): two
patients discontinued treatment due to adverse events ([3]; n=42, neuropathy, rash, dermatologic bullae and acute renal failure): Four
most common adverse event reported ([3]; patients treated with CR011-vcMMAE): Rash
clinical activity (melanoma): clinical activity
tolerability (melanoma): well tolerated
tolerability in dose escalation ([4]; 1.88 mg/kg IV q3w): tolerated
Alopecia, Total [4, 8]: 9 (50%) n (%)
Anorexia, Grade 3 [4, 8]: 0 (0%) n (%)
Anorexia, Grade 4 [4, 8]: 0 (0%) n (%)
Anorexia, Total [4, 8]: 5 (28%) n (%)
Any Event, Grade 3 [4, 8]: 10 (56%) n (%)
Any Event, Grade 4 [4, 8]: 0 (0%) n (%)
Any Event, Total [4, 8]: 18 (100%) n (%)
Constipation, Grade 3 [4, 8]: 0 (0%) n (%)
Constipation, Grade 4 [4, 8]: 0 (0%) n (%)
Constipation, Total [4, 8]: 6 (33%) n (%)
Cough, Grade 3 [4, 8]: 1 (6%) n (%)
Cough, Grade 4 [4, 8]: 0 (0%) n (%)
Cough, Total [4, 8]: 6 (33%) n (%)
Diarrhea, Grade 3 [4, 8]: 0 (0%) n (%)
Diarrhea, Grade 4 [4, 8]: 0 (0%) n (%)
Diarrhea, Total [4, 8]: 5 (28%) n (%)
Dizziness, Grade 3 [4, 8]: 0 (0%) n (%)
Dizziness, Grade 4 [4, 8]: 0 (0%) n (%)
Dizziness, Total [4, 8]: 4 (22%) n (%)
Dysgeusia, Grade 3 [4, 8]: 0 (0%) n (%)
Dysgeusia, Grade 4 [4, 8]: 0 (0%) n (%)
Dysgeusia, Total [4, 8]: 4 (22%) n (%)
Fatigue, Grade 3 [4, 8]: 1 (6%) n (%)
Fatigue, Grade 4 [4, 8]: 0 (0%) n (%)
Fatigue, Total [4, 8]: 9 (50%) n (%)
Fever, Grade 3 [4, 8]: 0 (0%) n (%)
Fever, Grade 4 [4, 8]: 0 (0%) n (%)
Fever, Total [4, 8]: 5 (28%) n (%)
Nausea, Grade 3 [4, 8]: 1 (6%) n (%)
Nausea, Grade 4 [4, 8]: 0 (0%) n (%)
Nausea, Total [4, 8]: 8 (44%) n (%)
Neuropathy, Grade 3 [4, 8]: 2 (11%) n (%)
Neuropathy, Grade 4 [4, 8]: 0 (0%) n (%)
Neuropathy, Total [4, 8]: 7 (39%) n (%)
Neutropenia, Grade 3 [4, 8]: 3 (17%) n (%)
Neutropenia, Grade 4 [4, 8]: 0 (0%) n (%)
Neutropenia, Total [4, 8]: 5 (28%) n (%)
Pain, Gastrointestinal, Grade 3 [4, 8]: 1 (6%) n (%)
Pain, Gastrointestinal, Grade 4 [4, 8]: 0 (0%) n (%)
Pain, Gastrointestinal, Total [4, 8]: 6 (33%) n (%)
Pain, Musculoskeletal, Grade 3 [4, 8]: 1 (6%) n (%)
Pain, Musculoskeletal, Grade 4 [4, 8]: 0 (0%) n (%)
Pain, Musculoskeletal, Total [4, 8]: 5 (28%) n (%)
Pruritus, Grade 3 [4, 8]: 0 (0%) n (%)
Pruritus, Grade 4 [4, 8]: 0 (0%) n (%)
Pruritus, Total [4, 8]: 3 (17%) n (%)
Rash, Grade 3 [4, 8]: 1 (6%) n (%)
Rash, Grade 4 [4, 8]: 0 (0%) n (%)
Rash, Total [4, 8]: 11 (61%) n (%)
Vomiting, Grade 3 [4, 8]: 0 (0%) n (%)
Vomiting, Grade 4 [4, 8]: 0 (0%) n (%)
Vomiting, Total [4, 8]: 7 (39%) n (%)
dose-limiting toxicity ([4]; first two patients enrolled at 1.34 mg/kg IV q3w, both had baseline neuropathy): dose-limiting worsening of peripheral sensory neuropathy
patients discontinued for an adverse event ([4]; of 18 patients treated, one for neuropathy and one for rash): two
killing of GPNMB-expressing breast cancer cells [5]: selectively killed
growth of GPNMB-expressing breast cancer cells ([5]; in vitro): effectively inhibits the growth
